Five molecules from patent US20110014211A1 (INSTITUTE FOR ANTIBODIES, published 2011) can be followed below.

The target in experiment [1] is Neurotoxin light chain (L-chain) (Clostridium botulinum, UniProt P0DPI0 2-448). Put plainly: ELISA, IgG on immobilised L-chain. Background: ELISA stands for enzyme-linked immunosorbent assay.
The target in experiment [2] is neuronal cell binding domain of the heavy chain C-terminal end (Hc, E. coli recombinant protein) (Clostridium botulinum, UniProt P0DPI0 871-1296). Put plainly: immunoblotting of Hc after SDS-PAGE (denatured antigen). On the technique in general: A western blot detects proteins with antibodies after separation by electrophoresis.
Experiment [3] deals with Neurotoxin heavy chain (H-chain) (Clostridium botulinum, UniProt P0DPI0 449-1296). Put plainly: ELISA, IgG on immobilised H-chain.

B1: NT-539 IgG type antibody (antibody, V domains shown)
VH: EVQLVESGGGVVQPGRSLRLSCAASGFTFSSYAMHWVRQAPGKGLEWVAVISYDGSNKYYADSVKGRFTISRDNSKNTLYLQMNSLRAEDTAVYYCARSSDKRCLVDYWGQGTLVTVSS
VL: DIQMTQSPSAVSASLGDRVTITCRASQGINPFLAWFQQKPGKVPERLIYTASRLQSGVPSRFSGSGTGTEFNLTISSLHPEDFATYYCLQHKHYPWTFGQGTKVERK
For B1, the binding result in experiment [1] is “no binding (tested: 10 µg/ml)”; in experiment [2] it was “no binding (tested: 50 µg/ml)”.

B2: NT-221 IgG type antibody (antibody, V domains shown)
VH: EVQLVESGPTLVKPTQTLTLTCTFSGFSLRTSGVAVGWIRQPPGKALEWLALIYWDDDKRYSPSLKSRLTITKDTSKNQVVLTMTNMDPVDTATYYCAHNTGTDLYFDWAFDYWGQGTLVTVSS
VL: QSVLTQPPSVSGAPGQRVTISCTGSSSNIGAGYDVHWYQQLPGTAPKLLIYGNSNRPSGVPDRFSGSKSGTSASLAITGLQAEDEADYYCQSYDSSLSGSVFGGGTKLTVLG
For the molecule B2, the binding result in experiment [1] is recorded as “no binding (tested: 1 µg/ml)”; in experiment [2], “no binding (tested: 50 µg/ml)”; in experiment [3], “no binding (tested: 1 µg/ml)”.

B3: BT-015 IgG type antibody (antibody, V domains shown)
VH: QVQLQQSGAEVKKPGASVKVACKASRYNFSAYYMHWVRQAPGQGPEWMGWINPHSGVTTYAQKFQGRVTMTRDTSIGTAYMELSRLRSDDTALYYCARGFGSSCSDTSCSFSGLDVWGQGTTVTVSS
VL: QSALTQPASVSGSPGQSITISCTGTSSDVGGYDYVSWYQQHPGEAPKLLIYDVTNRPSGVSSRFSGSKSGNTASLTISGLQPEDEADYYCTSYTSSVTYVFGSGTTLTVLS
On to B3, for which the binding result in experiment [1] is on record as “no binding (tested: 1 µg/ml)”; in experiment [2] it was “no binding (tested: 50 µg/ml)”.

B4: NT-320 IgG type antibody (antibody, V domains shown)
VH: EVQLVESGGGVVQPGKSLRLSCAASGFTFSSYGMHWVRQAPGKGLEWVAVISYPGTNEYYTDSVKGRFTISRDNSKNTLYLQMNSLRAEDTAVYYCARGDIHSGYSFGGGDYGLDVWGQGTTVTVSS
VL: DIQMTQSPSTLSASVGDRVTITCRASQSISGWLAWYQQKPGKAPKLLMYKASSLESGVPSRFSGSGSGTEFTLTISSLQPDDFATYYCQQYNNFPWTFGQGTKVEFK
Regarding B4, the binding result in experiment [2] is “no binding (tested: 50 µg/ml)”.

B5: BT-175 IgG type antibody (antibody, V domains shown)
VH: QITLKESGPTLVKPTQTLTLTCTFSGFSLRTSGVGVGWIRQPPGKAPEWLALIYWDGDKRFSPSLKSRLTINKDISKNQVVLTLTNLDPVDTGTYYCAHSFYHGSQSPGWFDPWGQGTLVTVSS
VL: QSVLTQPPSVSAAPGQKVTISCSGSSSNIGNNYVSWYQQLPGTAPKLLIYDNNKRPSGIPDRFSGSKSGTSATLGITGLQTGDEADYYCGTWDSSLSAVFGGGTKLTVLG
As to B5, the binding result in experiment [2] is recorded as “no binding (tested: 50 µg/ml)”; in experiment [3] it was “no binding (tested: 1 µg/ml)”.
